What was measured:
[1] = molecular target: T1, recombinant hGPC1 protein (Homo sapiens, UniProt P35052); assay: SPR; scFv-Fc fusion protein (1 μg/ml) captured by polyclonal rabbit anti-mouse IgG immobilised on CM5 chip; recombinant hGPC1 (6.25–400 nM) or mGPC1 (25–400 nM) injected; 25°C, HBS-EP+ buffer, Biacore T200; settings: both partners purified
T1 construct: glypican-1 (GPC1), human, recombinant protein from Biolegend; also called Human GPC1; human glypican-1; source: bought: Biolegend

[2] = molecular target: T2, recombinant mGPC1 protein (Mus musculus, UniProt Q9QZF2); assay: as above; settings: both partners purified
T2 construct: glypican-1 (GPC1), mouse, recombinant protein from Biolegend; also called Mouse GPC1; mouse glypican-1; source: bought: Biolegend
T2 sequence (Q9QZF2 24-529): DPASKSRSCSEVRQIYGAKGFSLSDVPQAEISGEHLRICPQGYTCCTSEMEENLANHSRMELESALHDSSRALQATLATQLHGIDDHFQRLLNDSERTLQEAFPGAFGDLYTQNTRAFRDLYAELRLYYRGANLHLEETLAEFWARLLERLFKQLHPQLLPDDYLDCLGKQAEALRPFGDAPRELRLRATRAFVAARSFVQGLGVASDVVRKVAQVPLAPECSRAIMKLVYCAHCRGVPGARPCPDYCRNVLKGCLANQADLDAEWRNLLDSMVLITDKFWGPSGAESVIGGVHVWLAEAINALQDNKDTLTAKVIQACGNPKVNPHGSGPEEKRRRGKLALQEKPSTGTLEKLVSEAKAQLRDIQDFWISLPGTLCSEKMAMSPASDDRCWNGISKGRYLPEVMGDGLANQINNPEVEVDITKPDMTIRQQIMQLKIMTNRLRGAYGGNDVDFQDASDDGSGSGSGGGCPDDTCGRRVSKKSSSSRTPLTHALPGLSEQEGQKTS

T1 sequence (P35052 24-530): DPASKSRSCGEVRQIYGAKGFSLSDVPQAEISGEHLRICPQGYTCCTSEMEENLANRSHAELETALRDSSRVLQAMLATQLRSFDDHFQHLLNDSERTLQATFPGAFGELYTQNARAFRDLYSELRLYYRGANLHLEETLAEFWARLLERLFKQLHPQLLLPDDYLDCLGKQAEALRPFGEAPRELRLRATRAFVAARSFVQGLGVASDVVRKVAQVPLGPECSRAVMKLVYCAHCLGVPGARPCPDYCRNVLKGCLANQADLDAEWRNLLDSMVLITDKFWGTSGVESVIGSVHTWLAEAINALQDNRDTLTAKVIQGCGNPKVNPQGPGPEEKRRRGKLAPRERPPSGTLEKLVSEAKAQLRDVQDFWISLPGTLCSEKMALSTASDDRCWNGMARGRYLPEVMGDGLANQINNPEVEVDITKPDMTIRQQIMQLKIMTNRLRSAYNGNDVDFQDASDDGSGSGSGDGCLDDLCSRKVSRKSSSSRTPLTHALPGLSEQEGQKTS

Row | Binder | Kd [1] | Kd [2]
1 | LH form of anti GPC1 scFv-mIgG2a Fc fusion protein (scFv, V domains shown, VL of anti-GPC1 mAb (clone: 1–12); purple) and its source data 1; linker of the scFv; orange); VH of anti-GPC1 mAb (clone: 1–12); green) and its source data 1; scFv cloned into pCAG-Neo mIgG2a-Fc plasmid (FUJIFILM Wako); Variable regions come from a chicken-based antibody; In the functional rows the same scFv stood as a CAR (human CD28 and CD3ζ domains) on human T cells; also called LH form of …) VH: AVTLDESGGGLQTPGRALSLVCKASGFTFSRYAMYWVRQAPGKGLEFVAGIGNTGRYTGYGSAVKGRATISRDSGQSTVRLQLNNLRAEDTGNYYCAKSVSPYCCDAADIDAWGHGTEVIVSS VL: ASTQPSSVSANPGETVKITCSGGSSGYAYGWYQQKSPGSAPVTLLYSNNNRPSDIPSRFSGSKSGSTATLTITGVQAEDEAVYFCGSVDSSSYAGIFGAGTTLTVL | 0.00906 µM | 0.0518 µM
2 | HL form of anti GPC1 scFv-mIgG2a Fc fusion protein (scFv, V domains shown, VH of anti-GPC1 mAb (clone: 1–12), as the VH of m1; linker of the scFv; orange); VL of anti-GPC1 mAb (clone: 1–12), as the VL of m1; scFv cloned into pCAG-Neo mIgG2a-Fc plasmid (FUJIFILM Wako); Variable regions come from a chicken-based antibody; In the functional rows the same scFv stood as a CAR on human T cells (human CD28/CD3ζ) or murine T cells (mouse CD28/CD3ζ); also called HL form of scFv; …) VH: AVTLDESGGGLQTPGRALSLVCKASGFTFSRYAMYWVRQAPGKGLEFVAGIGNTGRYTGYGSAVKGRATISRDSGQSTVRLQLNNLRAEDTGNYYCAKSVSPYCCDAADIDAWGHGTEVIVSS VL: ASTQPSSVSANPGETVKITCSGGSSGYAYGWYQQKSPGSAPVTLLYSNNNRPSDIPSRFSGSKSGSTATLTITGVQAEDEAVYFCGSVDSSSYAGIFGAGTTLTVL | 0.0122 µM | 0.109 µM
